Laboratory results published in publication doi:10.1101/2021.08.07.455519 (bioRxiv, 2021).

Biological target: BG505 UFO trimer (HIV-1 strain BG505, UniProt Q2N0S6, stabilised)
Assay: BLI

B1: intermediate antibody IA5 of the J038 lineage (antibody, V domains shown)
VH: QLRLQESGPGLVKPSETLSLNCAVSGGSISDAYWSWIRQSPGRGLEWIGRISGRDGYTDYNPSLTSRVTISTDRSKTQVSLRLTSVTAADTAVYFCAREVAEDDYGYYQPYFDSWGQGVLVTVSS
VL: DIQMTQSPSSVSASVGDRVTITCRSSQGIDTDLAWYQHTPGKAPKLLIYHSCGLQSGVPSRFSGSGSGTDFTLTISSLQPEDFATYYCQQYKSLPLTFGGGTKVEVK
B1: binds.
